One experiment deals with cortical neurons. In words: Viability of transfected neurons exposed to activated microglia (GFP+ cell counts). As to conditions: overnight exposure to activated microglia; vector-expressing cells reduced by nearly 40%. Type of experiment: cell-based, rat. The protocol:
(§1) For electrophysiological experiments, mixed cortical neuronal/glial cultures were prepared from embryonic day 16 (E16) Sprague-Dawley rats (Charles River Laboratories, Wilmington, Mass., USA). Donor rats were euthanized by gradual CO2 exposure. Cortices were dissociated with trypsin, and the resultant cell suspension, adjusted to 670,000 cells per well, was plated on glass coverslips in 6-well plates as described previously (Hartnett et al., J Neurochem 68, 1836-1845, 1997). Non-neuronal cell proliferation was inhibited after two weeks in culture with 1-2 μM cytosine arabinoside, and cultures utilized at three to four weeks in vitro. For neuronal transfection, cells were treated for five hours in serum-free medium with 2 μL LIPOFECTAMINE™ 2000 (Invitrogen, Carlsbad, Calif.), 50 μL Optimem (GIBCO, Grand Island, N.Y.), and 1.5 μg DNA per well. For CHO cell transfections, cells were plated on coverslips in 24-well plates at a density of 5.6×10^4 cells per well for electrophysiological measurements or in 100 mm dishes at a density of 1.7×10^6 cells per dish for biochemical studies. […]
Viability of transfected neurons was assessed by cell counts of GFP+ cells. […] GFP+ cells were counted in 20 random areas per coverslip using a 20× objective. […]
It was next evaluated whether C1a441-522 was sufficient to protect neurons against oxidative injury. […]

The test system of the next experiment is Kv2.1 K^+ currents. Description: Whole-cell patch clamp K+ currents in cortical neurons after DTDP. It is filed as cell-based, rat. The protocol: as §1, with “well.” for “well. For CHO cell transfections, cells were plated on coverslips in 24-well plates at a density of 5.6×10^4 cells per well for electrophysiological measurements or in 100 mm dishes at a density of 1.7×10^6 cells per dish for biochemical studies.”
Current recordings were performed on eGFP-positive co-transfected neurons or CHO cells using the whole-cell patch clamp configuration technique as described previously (McLaughlin et al., J Neurosci 21, 3303-3311, 2001). […] To determine current density values, steady-state current amplitudes were measured 180 msec after the initiation of the +10 mV step and normalized to cell capacitance. […]

B1: C1a441-522: distal segment of C1a, residues 441-522 of rat Kv2.1 (protein, UniProt P15387 441-522, looked up, fragment)
chain: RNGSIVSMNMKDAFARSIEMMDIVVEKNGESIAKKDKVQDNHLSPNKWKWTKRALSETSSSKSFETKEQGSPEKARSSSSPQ
B1: the “effect of activated microglia on viability of peptide-expressing neurons” value in the experiment with cortical neurons is reported as “no detrimental effect”.

B2: C1a: rat Kv2.1 C1a peptide, residues 411-522 of SEQ ID NO: 3, expressed from a plasmid (protein, listed as Rattus norvegicus)
chain: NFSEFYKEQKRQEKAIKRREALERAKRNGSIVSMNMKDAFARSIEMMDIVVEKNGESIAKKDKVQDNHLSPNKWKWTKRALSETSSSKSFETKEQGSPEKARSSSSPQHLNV
For B2, in the experiment on Kv2.1 K^+ currents (cortical neurons transfected with C1a-expressing plasmid, 30 μM DTDP 10 min, +10 mV step), the “effect on DTDP-induced enhancement of K+ current densities” value is listed as “failed to exhibit the enhanced K^+ current densities normally elicited by DTDP”. Also, the “effect on non-apoptotic, basal delayed-rectifier K+ currents” value in the experiment on Kv2.1 K^+ currents (cortical neurons, without DTDP) was “had no effect”.

These data come from patent US9932382B2, “Kv2.1 channel-derived peptides and methods of use” (University of Pittsburgh—Of the Commonwealth System of …, priority 2014, dated 2018).
